Laboratory results as given in patent US20210292396A1.

Legend:
Assay in all cases: cell-based or functional assay
[1] = molecular target: Env of HIV isolate 16055-2.3 (clade C) (HIV)
[2] = molecular target: Env of HIV isolate 191821.E6.1 (clade D) (HIV)
[3] = molecular target: Env of HIV isolate 247-23 (clade D) (HIV)
[4] = molecular target: Env of HIV isolate 25711-2.4 (clade C) (HIV)
[5] = molecular target: Env of HIV isolate 6535.3 (clade B) (HIV)
[6] = molecular target: Env of HIV isolate 6545.v4.c1 (clade AC) (HIV)
[7] = molecular target: Env of HIV isolate 96ZM651.02 (clade C) (HIV)
[8] = molecular target: Env of HIV isolate BB539.2B13 (clade A) (HIV)
[9] = molecular target: Env of HIV isolate BJOX010000.06.2 (clade AE) (HIV)
[10] = molecular target: Env of HIV isolate C2101.c1 (clade AE) (HIV)
[11] = molecular target: Env of HIV isolate CAP256.206.C9 (clade C) (HIV)
[12] = molecular target: Env of HIV isolate CNE12 (clade B) (HIV)
[13] = molecular target: Env of HIV isolate CNE4 (clade B) (HIV)
[14] = molecular target: Env of HIV isolate Ce1176.A3 (clade C) (HIV)
[15] = molecular target: Env of HIV isolate DJ263.8 (clade AG) (HIV)
[16] = molecular target: Env of HIV isolate HXB2.DG (clade B) (HIV)
[17] = molecular target: Env of HIV isolate KER2018.11 (clade A) (HIV)
[18] = molecular target: Env of HIV isolate P0402.c2.11 (clade G) (HIV)
[19] = molecular target: Env of HIV isolate PVO.04 (clade B) (HIV)
[20] = molecular target: Env of HIV isolate R1166.C1 (clade AE) (HIV)
[21] = molecular target: Env of HIV isolate R2184.c4 (clade AE) (HIV)
[22] = molecular target: Env of HIV isolate RW020.2 (clade A) (HIV)
[23] = molecular target: Env of HIV isolate SF162.LS (clade B) (HIV)
[24] = molecular target: Env of HIV isolate ZM197.7 (clade C) (HIV)
[25] = molecular target: HIV Env of isolate 0013095-2.11 (HIV)
[26] = molecular target: HIV Env of isolate 0921.v2.c14 (HIV)
[27] = molecular target: HIV Env of isolate 271-11 (HIV)
[28] = molecular target: HIV Env of isolate 3873.v1.c24 (HIV)
[29] = molecular target: HIV Env of isolate 398-F1.F6.20 (HIV)
[30] = molecular target: HIV Env of isolate 6322.v4.c1 (HIV)
[31] = molecular target: HIV Env of isolate 6471.v1.c16 (HIV)
[32] = molecular target: HIV Env of isolate 6535.3 (HIV)
[33] = molecular target: HIV Env of isolate BG505.W6M.C2 (HIV)
[34] = molecular target: HIV Env of isolate BJOX028000.10.3 (HIV)
[35] = molecular target: HIV Env of isolate BX08.16 (HIV)
[36] = molecular target: HIV Env of isolate CH119.10 (HIV)
[37] = molecular target: HIV Env of isolate CM244.ec1 (HIV)
[38] = molecular target: HIV Env of isolate CNE21 (HIV)
[39] = molecular target: HIV Env of isolate CNE55 (HIV)
[40] = molecular target: HIV Env of isolate CNE8 (HIV)
[41] = molecular target: HIV Env of isolate Ce1176.A3 (HIV)
[42] = molecular target: HIV Env of isolate DU156.12 (HIV)
[43] = molecular target: HIV Env of isolate DU422.01 (HIV)
[44] = molecular target: HIV Env of isolate HXB2.DG (HIV) (UniProt P04578)
[45] = molecular target: HIV Env of isolate PVO.04 (HIV)
[46] = molecular target: HIV Env of isolate R3265.c6 (HIV)
[47] = molecular target: HIV Env of isolate REJO.67 (HIV)
[48] = molecular target: HIV Env of isolate T255-34 (HIV)
[49] = molecular target: HIV Env of isolate T266-60 (HIV)
[50] = molecular target: HIV Env of isolate UG024.2 (HIV)
[51] = molecular target: HIV Env of isolate YU2.DG (HIV) (UniProt P35961)
[52] = molecular target: HIV Env of isolate ZM176.66 (HIV)
[53] = molecular target: HIV Env of isolate ZM55.28a (HIV)

HIV Env of isolate YU2.DG (HIV), sequence (P35961 32-843 limits assumed): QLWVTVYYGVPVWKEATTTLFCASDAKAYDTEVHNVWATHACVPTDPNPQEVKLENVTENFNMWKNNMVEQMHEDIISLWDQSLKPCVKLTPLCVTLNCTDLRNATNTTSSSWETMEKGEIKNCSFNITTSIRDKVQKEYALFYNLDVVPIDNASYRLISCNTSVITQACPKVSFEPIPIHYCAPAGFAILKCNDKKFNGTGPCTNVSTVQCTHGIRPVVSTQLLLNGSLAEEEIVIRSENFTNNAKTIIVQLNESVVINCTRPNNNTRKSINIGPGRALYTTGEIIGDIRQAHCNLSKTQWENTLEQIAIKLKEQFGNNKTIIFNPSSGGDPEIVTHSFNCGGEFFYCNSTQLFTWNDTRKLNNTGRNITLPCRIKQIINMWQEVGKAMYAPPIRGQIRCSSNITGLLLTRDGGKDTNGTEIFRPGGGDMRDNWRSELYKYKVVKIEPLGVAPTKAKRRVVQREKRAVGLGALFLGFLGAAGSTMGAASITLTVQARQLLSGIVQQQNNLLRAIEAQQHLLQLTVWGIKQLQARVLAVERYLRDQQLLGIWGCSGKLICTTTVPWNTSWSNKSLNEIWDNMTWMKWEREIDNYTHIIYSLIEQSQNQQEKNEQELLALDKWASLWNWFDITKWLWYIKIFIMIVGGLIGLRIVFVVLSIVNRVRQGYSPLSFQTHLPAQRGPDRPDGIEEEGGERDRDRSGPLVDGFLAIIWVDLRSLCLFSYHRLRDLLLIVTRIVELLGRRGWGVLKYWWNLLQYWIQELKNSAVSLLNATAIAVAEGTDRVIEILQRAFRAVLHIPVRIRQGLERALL

Substance: PGT121 (antibody)
- IC50, pseudovirus neutralization [1]: 0.312 µg/mL
- IC50, pseudovirus neutralization [2]: > 50 µg/mL
- IC50, pseudovirus neutralization [3]: > 50 µg/mL
- IC50, pseudovirus neutralization [4]: 0.0173 µg/mL
- IC50, pseudovirus neutralization [5]: 0.00633 µg/mL
- IC50, pseudovirus neutralization [6]: > 50 µg/mL
- IC50, pseudovirus neutralization [7]: 0.0213 µg/mL
- IC50, pseudovirus neutralization [8]: > 50 µg/mL
- IC50, pseudovirus neutralization [9]: > 50 µg/mL
- IC50, pseudovirus neutralization [10]: > 50 µg/mL
- IC50, pseudovirus neutralization [11]: 0.02 µg/mL
- IC50, pseudovirus neutralization [12]: 0.0153 µg/mL
- IC50, pseudovirus neutralization [13]: 1.9 µg/mL
- IC50, pseudovirus neutralization [14]: 0.0243 µg/mL
- IC50, pseudovirus neutralization [15]: 0.0577 µg/mL
- IC50, pseudovirus neutralization [16]: > 50 µg/mL
- IC50, pseudovirus neutralization [17]: > 50 µg/mL
- IC50, pseudovirus neutralization [18]: 0.0123 µg/mL
- IC50, pseudovirus neutralization [19]: 0.189 µg/mL
- IC50, pseudovirus neutralization [20]: > 50 µg/mL
- IC50, pseudovirus neutralization [21]: > 50 µg/mL
- IC50, pseudovirus neutralization [22]: 0.01 µg/mL
- IC50, pseudovirus neutralization [23]: 0.00733 µg/mL
- IC50, pseudovirus neutralization [24]: > 50 µg/mL
- IC80, pseudovirus neutralization [25]: > 50 µg/mL
- IC80, pseudovirus neutralization [26]: > 50 µg/mL
- IC80 [27]: > 50 µg/mL
- IC80, pseudovirus neutralization [28]: 0.113 µg/mL
- IC80 [29]: 0.0527 µg/mL
- IC80, pseudovirus neutralization [30]: > 50 µg/mL
- IC80, pseudovirus neutralization [31]: > 50 µg/mL
- IC80 [32]: 0.0217 µg/mL
- IC80 [33]: 0.165 µg/mL
- IC80 [34]: > 50 µg/mL
- IC80 [35]: 0.021 µg/mL
- IC80, pseudovirus neutralization [36]: 0.0937 µg/mL
- IC80 [37]: > 50 µg/mL
- IC80, pseudovirus neutralization [38]: 0.0383 µg/mL
- IC80 [39]: > 50 µg/mL
- IC80 [40]: > 50 µg/mL
- IC80, pseudovirus neutralization [41]: 0.066 µg/mL
- IC80, pseudovirus neutralization [42]: 0.0367 µg/mL
- IC80, pseudovirus neutralization [43]: 0.176 µg/mL
- IC80 [44]: > 50 µg/mL
- IC80 [45]: 0.498 µg/mL
- IC80 [46]: > 50 µg/mL
- IC80 [47]: > 50 µg/mL
- IC80 [48]: > 50 µg/mL
- IC80 [49]: 0.548 µg/mL
- IC80, pseudovirus neutralization [50]: > 50 µg/mL
- IC80 [51]: 0.126 µg/mL
- IC80, pseudovirus neutralization [52]: 27.6 µg/mL
- IC80, pseudovirus neutralization [53]: 0.216 µg/mL
